One test concerns the target T1, human Hsp90α (human, UniProt P07900-1 1-732).
T1 construct: human Hsp90α (Hsp90AA1-1), canonical isoform, 732 aa as printed; also called Hsp90AA1-1; heat shock protein 90
The test is described as follows: SEC; chaperone and cochaperone at 2.5 µM, 10 min at 30°C following 10 min on ice, 40 mM Hepes-KOH pH 7.4, 50 mM KCl, 2 mM Mg2Cl; Superdex 200 HR 10/30 in the same buffer; fractions analysed by SDS-PAGE (Western blot for Aha1 and Cdc37 in the Hsp103 runs); shift of the cochaperone to higher molecular mass. The note with it: both partners purified. (In gel filtration, larger molecules generally elute earlier.)

A further test deals with T2, human Hsp103 (human, UniProt P07900-2 1-854).
T2 construct: human Hsp103, the isoform of Hsp90α with an additional 122 aa (E domain) at the N-terminus; printed length 854 aa (also printed as 852 aa for Hsp90AA1-2); also called Hsp90AA1-2; Hsp90α with extra E domain
The description is as above. The settings on record: both partners purified.

B1: human Cdc37 (natural protein, UniProt Q16543 1-378, looked up)
chain: MVDYSVWDHIEVSDDEDETHPNIDTASLFRWRHQARVERMEQFQKEKEELDRGCRECKRKVAECQRKLKELEVAEGGKAELERLQAEAQQLRKEERSWEQKLEEMRKKEKSMPWNVDTLSKDGFSKSMVNTKPEKTEEDSEEVREQKHKTFVEKYEKQIKHFGMLRRWDDSQKYLSDNVHLVCEETANYLVIWCIDLEVEEKCALMEQVAHQTIVMQFILELAKSLKVDPRACFRQFFTKIKTADRQYMEGFNDELEAFKERVRGRAKLRIEKAMKEYEEEERKKRLGPGGLDPVEVYESLPEELQKCFDVKDVQMLQDAISKMDPTDAKYHMQRCIDSGLWVPNSKASEAKEGEEAGPGDPLLEAVPKTGDEKDVSV
notes: human Cdc37, cochaperone of Hsp90
In the case of B1, the binding result with human Hsp90α and with human Hsp103 was “binds” in each case.

Source of the values: article PMC3739785, “A Primate Specific Extra Domain in the Molecular Chaperone Hsp90” (PLoS ONE, 2013).
